Measured values as given in patent US20250051443A1 (NATIONAL RESEARCH COUNCIL OF CANADA, published 2025).
Changes are numbered by the printed parent chain. Values belong to the binder of their own block, whether it stands above or below them.

Columns and labels:
[1] = target: T1, human CD3 (human, UniProt P07766 23-207; P09693 23-182; P04234 22-171); experiment: cell-based or functional assay
[2] = target: T1, human CD3; experiment: cell-based or functional assay; remark: listed apart in the source
[3] = target: T1, human CD3; experiment: flow cytometry, hybridoma supernatant on CD3+ Jurkat cells
Description: Cells were stained with either negative control mouse IgG (Jackson Immunoresearch cat #115-000-003) or an anti-GFP 3E6 mAb supernatant or tested hybridoma supernatant. Specific binding was reflected by the increase in the mean fluorescent intensity of antibody binding to Jurkat T-cells (FIGS. 1A to 1F, grey histograms) compared to the Jurkat CD3 negative cell line J.RT3-T3.5 (FIGS. 1A to 1F, open histograms). AF488 labeled positive control mAb OKT3 was also analyzed.

[4] = target: T1, human CD3; experiment: apparent KD (KDapp), flow cytometry titration on Jurkat cells
Procedure, shortened: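 Jurkat cells incubated 2 h on ice with 1/3 serial dilutions of purified mouse mAbs from 300 nM, then FITC anti-mouse Fc F(ab′)2 for 1 h. Binding read by flow cytometry on 2,000 viable single cells, with propidium iodide exclusion.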

[5] = target: T1, human CD3; experiment: flow competition on Jurkat, 100 nM unlabeled mAb; competitor AF488-SK7 1.5 nM
Procedure, shortened: (§1)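 Jurkat cells incubated with a fixed concentration of AF488-labeled anti-CD3 mAb plus 100 nM unlabeled mAb, with competition read by flow cytometry as impaired labeled-mAb binding. In-house AF488-OKT3 mIgG2b was desalted and checked for integrity by UPLC-SEC.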

[6] = target: T1, human CD3; experiment: flow competition on Jurkat, 100 nM unlabeled mAb; competitor AF488-UCHT1 5 nM
Procedure, shortened: as §1

[7] = target: T1, human CD3; experiment: apparent KD (KDapp), flow cytometry titration on purified primary human T cells
Procedure, shortened: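 Freshly isolated human T cells from PBMCs (negative pan-T selection), 1×10⁵ per test, stained 2 h at 4 °C with eight-point mAb dilutions from 300 or 100 nM, then APC anti-mouse IgG secondary 30 min. Background-subtracted flow MFI fitted by one-site specific binding with Hill slope for KDapp.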

[8] = target: T1, human CD3; experiment: flow competition on Jurkat, 100 nM unlabeled mAb; competitor AF488-SP34.2 20 nM
Procedure, shortened: as §1

[9] = target: T1, human CD3; experiment: flow competition on Jurkat, 100 nM unlabeled mAb; competitor AF488-OKT-3 mIgG2b 1.5 nM
Description: In order to evaluate whether anti-CD3 monoclonal antibodies bind to the same epitope region, flow cytometry competition experiments on Jurkat cells were performed.
To that effect, a fixed concentration of the indicated AF488-labeled mAb were incubated with 100 nM of unlabeled monoclonal antibodies to assess if their binding capacity was impaired in presence of unlabeled mAbs. […] The AF488-OKT3 mIgG2b was labeled in-house using AlexaFluor488 protein labelling kit (Invitrogen #A10235) following manufacturer's instruction. The free dye removal step was done using Zeba™ Spin Desalting Columns, 7K MWCO (Thermo Scientific #89890). The final product was analyzed by UPLC-SEC to ensure the integrity of the labeled mAb.

- % max ref. OKT3 (dTomato activation) [1]: 98%
- EC50 of dTomato induction (CD69 promoter), Jurkat-CD69-dTomato cells, 24 h [1]: 0.19 µg/mL
- IC50, indirect ADC surrogate growth inhibition (anti-mouse-DM1) on Jurkat cells [2]: 173 pM
- Span, indirect ADC surrogate growth inhibition on Jurkat cells [2]: 95%
- MFI [3]: 292 MFI
- Kd [4]: 400 pM
- % residual fluorescence of labeled mAb [5]: 49%
- % residual fluorescence of labeled mAb [6]: 74%
- Kd [7]: 370 pM
- % residual fluorescence of labeled mAb [8]: 9%
- % residual fluorescence of labeled mAb [9]: 90%
B1: F332-5F2 (antibody, mouse IgG2b, V domains shown)
VH: QVQLQQPGAELGKPGTSVKLSCKASGYTFTSYWMHWVKQRPGQGLEWIGNINPNGGDSNYNEKFKSKATLTVDKSSSTAYMQLSTLTSEDSAVYYCTRDISGQYYFDFWGQGTSLTVFS
VL: DILMSQSPSSLAVSAGEQVTMSCKSSQSLLNSRTRKNYLAWYQQKPGQSPKLLIFWASTRKSGVPDRFTGSGSGTYFTLTISSVQAEDLAVYYCTQSYNLRTFGGGTKLEIK
notes: also called F332-5F2-2; F332-5F2 (6G8, 13A3)

- % max ref. OKT3 (dTomato activation) [1]: 91%
- EC50 of dTomato induction (CD69 promoter), Jurkat-CD69-dTomato cells, 24 h [1]: 0.24 µg/mL
- IC50, indirect ADC surrogate growth inhibition (anti-mouse-DM1) on Jurkat cells [2]: 45 pM
- Span, indirect ADC surrogate growth inhibition on Jurkat cells [2]: 96%
- MFI [3]: 285 MFI
- Kd [4]: 500 pM
- % residual fluorescence of labeled mAb [5]: 42%
- % residual fluorescence of labeled mAb [6]: 68%
- Kd [7]: 160 pM
- % residual fluorescence of labeled mAb [8]: 9%
- % residual fluorescence of labeled mAb [9]: 82%
B2: F332-7C9 (antibody, mouse IgG2a, V domains shown)
VH: QVQLQQSGPELVKPGASVRISCKASGYTFTSHYLHWVKQRPGQGFEWIGWIYPGDGNTRYNEKFKDRATLTADKSSSTAYLHLSSLTSEDSAVYFCARDAGYYFDYWGQGTTLAVSS
VL: B1 VL with L3V, Q18K, P50L, L52V, F55Y, K61E, Y76D, T95K, N99S
notes: also called F332-7C9-2; F332-7C9 (5C7, 7D10)

- % max ref. OKT3 (dTomato activation) [1]: 102%
- EC50 of dTomato induction (CD69 promoter), Jurkat-CD69-dTomato cells, 24 h [1]: 0.23 µg/mL
- IC50, indirect ADC surrogate growth inhibition (anti-mouse-DM1) on Jurkat cells [2]: 62 pM
- Span, indirect ADC surrogate growth inhibition on Jurkat cells [2]: 95%
- MFI [3]: 334 MFI
- Kd [4]: 600 pM
- % residual fluorescence of labeled mAb [5]: 39%
- % residual fluorescence of labeled mAb [6]: 64%
- Kd [7]: 410 pM
- % residual fluorescence of labeled mAb [8]: 7%
- % residual fluorescence of labeled mAb [9]: 79%
B3: F332-7C5 (antibody, mouse IgG2a, V domains shown)
VH: QVQLQQPGAELGKPGTSVKLSCKASGYTFTSYWMHWVKQRPGQGLEWIGNINPSSGITNYNERFKNKATLTVDKSSTTAYMQLSILTSEDSAVYYCSRDISGQYYFNFWGQGTTLTVSS
VL: B1 VL with L3V, Q18K, F55Y, K61E, S71T, Y76D, T95K
notes: also called F332-7C5-2; F332-7C5 (5E12, 10A8)
